What was measured:
EGFR = test: tyrosine phosphorylation of EGFR in HUVS cells; type: cell-based, human
Procedure: FIG. 10: FIG. 10 illustrates: (A), HUVS cells were stimulated with PTN for 2, 5, and 15 minutes. Cell lysates were used to immunoprecipitate EGFR and the immunoprecipitates were analyzed in Western blots probed with anti-phosphotyrosine antibodies. In (B), Lysates from PTN-stimulated HUVS cells that express EGFR were incubated with GST-RPTPβ/ζ D1, GST-RPTPβ/ζ D1 (C1932S), and GST-RPTPβ/ζ D1 (D1900A), a “substrate trap” mutant, which captures the substrate phosphoryl-intermediate in the active site of RPTPβ/ζ with high affinity and specificity. The proteins captured were analyzed in Western blots probed with anti-EGFR antibodies and separately with anti-GST antibodies. In (C), HUVS cells were co-transfected with a full-length EGFR and the vector pC4-Fv1E encoding the Fv domain of FKBP12 needed for enforced dimerization induced by AP20187 (Clackson, Yang et al. 1998) in frame with the intracellular domain of RPTPβ/ζ. AP20187 (2 μM) enforced homodimerization of RPTPβ/ζ and stimulated increase in tyrosine phosphorylation of EGFR 2′, 5′, 10′, and 20′ after stimulation compared with control cells transfected with EGFR alone. (D) A retroviral vector (pSM2) encoding shRNA to “knock down” RPTPβ/ζ was tested in HUVS cells that express endogenous RPTPβ/ζ and EGFR. The cells were stimulated with PTN and cell lysates were used to prepare immunoprecipitates with anti-EGFR antibodies and the immunoprecipitates analyzed in Western blots probed with anti-phosphotyrosine antibodies.
Cell lysates prepared in a lysis buffer containing 50 mM Tris, 150 mM NaCl pH 7.5, 1% NP40, 0.25% sodium deoxycholate, 0.1% SDS, Complete EDTA-free Protease Inhibitor Cocktail (Roche, Indianapolis, Ind.), and 2 mM sodium orthovanadate were pre-cleared by incubation with 2 μg antibodies followed by one hour incubation with protein G-agarose beads. The beads were washed 4 times in the same lysis buffer, eluted in loading buffer containing 240 mM Tris pH 6.8, 40% glycerol, 20% SDS, 2.5% β-mercaptoethanol and 0.01% bromophenol blue and analyzed in Western blots probed with different antibodies as individually described.
PI3K also is activated by an activated Epidermal Growth Factor Receptor (EGFR). We therefore investigated the possibility EGFR is implicated in the translocation of β-catenin to nucleus in PTN-stimulated cells. HUVS were stimulated with PTN for 2, 5, and 15 minutes. Lysates from these cells were immunoprecipitated with anti-EGFR antibodies and the immunoprecipitates were analyzed in Western blots probed with anti-phosphotyrosine antibodies. Tyrosine phosphorylation of EGFR was increased about 5.8-fold at two minutes after HUVS cells were stimulated with PTN, about 11-fold at 5 minutes, and about 5-fold 15 minutes after stimulation with PTN (FIG. 10A).
To establish whether phosphorylation of EGFR is dependent on enforced dimerization of RPTPβ/ζ, which is the consequence of the interaction of PTN with RPTPβ/ζ, HUVS cells were then co-transfected with a full-length EGFR and the vector pC4-Fv1 E. The vector pC4-Fv1 E encodes the Fv domain of FKBP12 in frame with the intracellular domain of RPTPβ/ζ; it effectively enforces dimerization of RPTPβ/ζ when cells are stimulated with AP20187. AP20187 (2 μM) was added to HUVS cells that expressed full-length EGFR and pC4-Fv1 E as above. […]

Akt = test: phosphorylation of Akt in PTN-stimulated HUVS cells; type: cell-based, human; details: PTN 50 ng/ml, 5 minutes, elevated at 20 minutes
Procedure: FIG. 11: FIG. 11 illustrates: human umbilical vein stromal cells not stimulated or stimulated with 50 ng/ml of PTN for 2, 5, 10 or 20 minutes were used to prepare cell lysates that were analyzed in Western blots probed with anti-phospho threonine 308 Akt (panel A), anti-phospho serine 473 Akt (panel B), anti-phospho-serine 9 GSK3β (panel C), anti-phospho-serine 33, 37 and […] β-catenin (panel D) or anti-actin antibodies (panel E). Akt was immunoprecipitated from those lysates using anti-Akt antibodies, incubated with a fusion peptide containing the 20 N-terminal amino acids of GSK3β and analyzed in Western-blots probed using anti-phospho-serine 9 GSK3β antibodies (panel F).
To pursue this pathway of nuclear import of β-catenin, HUVS cells were stimulated with PTN (50 ng/ml), lysed, and analyzed in Western blots probed with anti-phosphothreonine 308 Akt or anti-phosphoserine 473 Akt antibodies (FIG. 11, panel A and B). […]
The association of adaptor proteins that associate with specific phosphorylated sites in activated EGFR are responsible for the activation of phosphatidyl-inositol 3-kinase (PI3K). […] The cells were stimulated with PTN for 2, 5, 10, and 20 minutes, cell lysates were prepared, and the lysates were analyzed in Western blots probed with anti-phospho-Akt (Ser473), anti-phospho-GSKβ (Ser9), and anti-phospho-β-catenin (Thr42) antibodies. […]

B1: pleiotrophin (protein, UniProt P21246 33-168, looked up)
Pleiotrophin: GKKEKPEKKVKKSDCGEWQWSVCVPTSGDCGLGTREGTRTGAECKQTMKTQRCKIPCNWKKQFGAECKYQFQAWGECDLNTALKTRTGSLKRALHNAECQKTVTISKPCGKLTKPKPQAESKKKKKEGKKQEKMLD
Question: With B1 as the molecule, how does the “increase in tyrosine phosphorylation of EGFR” value (shortened to “increase”) (EGFR; 5 minutes after PTN) read?
Answer: about 11 fold

Question: What about the “increase” value (EGFR; 15 minutes after PTN) of the same molecule?
Answer: about 5 fold

Question: And the “tyrosine phosphorylation of EGFR” value (EGFR; RPTPβ/ζ knocked down with shRNA)?
Answer: failed to stimulate

Question: And the “increase” value (EGFR; cells transfected with pSM2 control vector)?
Answer: ~5 fold

Question: What about the “increase” value (EGFR; two minutes after PTN) of the same molecule?
Answer: about 5.8 fold

Question: And the “phosphorylation of Akt threonine 308 and serine 473” value (Akt)?
Answer: rapid increase
